Test results published in publication PMC5503940.

Experiments:
αβ-tubulin heterodimer [1] = biological target: αβ-tubulin heterodimer
αβ-tubulin heterodimer [2] = assay: SEC-MALS; KW803 (Shodex) column, 20 mM Pipes pH 6.8, 10 μM AMPPNP; 30 μl at about 3 mg/ml tubulin–Kif2C–DARPin complexes, 0.5 ml/min
αβ-tubulin heterodimer [3] = biological target: αβ-tubulin heterodimer; remark: listed apart in the source

Substance: Kif2C-(sN+M) (short neck+motor construct of human Kif2C/MCAK) (from UniProt Q99661 216-598) (domain or fragment)
- microtubule-stimulated ATPase, K mMT; tubulin as Taxotere-stabilized microtubules (αβ-tubulin heterodimer [1]): 1.1 µM

Substance: Kif2C-(sN+M) R420S (from UniProt Q99661 216-598) (domain or fragment)
- microtubule depolymerase activity (turbidity, percent of wild-type Kif2C-(sN+M)) (αβ-tubulin heterodimer [1]): 5.7%
- microtubule-stimulated ATPase, k cat; tubulin as Taxotere-stabilized microtubules (αβ-tubulin heterodimer [1]): 0.33 s⁻¹

Substance: Kif2C-(sN+M) R510A (from UniProt Q99661 216-598) (domain or fragment)
- microtubule-stimulated ATPase, K mMT; tubulin as Taxotere-stabilized microtubules (αβ-tubulin heterodimer [1]): 17 µM

Substance: Kif2C-(sN+M) R540A (from UniProt Q99661 216-598) (domain or fragment)
- microtubule depolymerase activity (turbidity, percent of wild-type Kif2C-(sN+M)) (αβ-tubulin heterodimer [1]): 5.5%

Substance: Kif2C-(sN+M)-(G4S)3-DARPin (Kif2C-(sN+M) linked to the D1 DARPin by a (G4S)3 peptide) (from UniProt Q99661 216-598)
- stoichiometry N (tubulin:construct) (αβ-tubulin heterodimer [2]): 1

Substance: Kif2C-(sN+M)-(G4S)4-GGS-DARPin (Kif2C-(sN+M) fused to the A-C2 DARPin) (from UniProt Q99661 216-598)
- microtubule-stimulated ATPase, apparent K m (K mMT); tubulin as Taxotere-stabilized microtubules (αβ-tubulin heterodimer [3]): 20 µM
- tubulin-stimulated ATPase, apparent Michaelis–Menten constant (αβ-tubulin heterodimer [3]): 0.5 µM
- tubulin-stimulated ATPase, k cat (αβ-tubulin heterodimer [3]): 0.1 s⁻¹
